B1: Protein phosphatase 1 regulatory subunit 12A (Homo sapiens), O14974 (parent)
chain: MKMADAKQKRNEQLKRWIGSETDLEPPVVKRQKTKVKFDDGAVFLAACSSGDTDEVLKLLHRGADINYANVDGLTALHQACIDDNVDMVKFLVENGANINQPDNEGWIPLHAAASCGYLDIAEFLIGQGAHVGAVNSEGDTPLDIAEEEAMEELLQNEVNRQGVDIEAARKEEERIMLRDARQWLNSGHINDVRHAKSGGTALHVAAAKGYTEVLKLLIQAGYDVNIKDYDGWTPLHAAAHWGKEEACRILVDNLCDMEMVNKVGQTAFDVADEDILGYLEELQKKQNLLHSEKRDKKSPLIESTANMDNNQSQKTFKNKETLIIEPEKNASRIESLEQEKVDEEEEGKKDESSCSSEEDEEDDSESEAETDKTKPLASVTNANTSSTQAAPVAVTTPTVSSGQATPTSPIKKFPTTATKISPKEEERKDESPATWRLGLRKTGSYGALAEITASKEGQKEKDTAGVTRSASSPRLSSSLDNKEKEKDSKGTRLAYVAPTIPRRLASTSDIEEKENRDSSSLRTSSSYTRRKWEDDLKKNSSVNEGSTYHKSCSFGRRQDDLISSSVPSTTSTPTVTSAAGLQKSLLSSTSTTTKITTGSSSAGTQSSTSNRLWAEDSTEKEKDSVPTAVTIPVAPTVVNAAASTTTLTTTTAGTVSSTTEVRERRRSYLTPVRDEESESQRKARSRQARQSRRSTQGVTLTDLQEAEKTIGRSRSTRTREQENEEKEKEEKEKQDKEKQEEKKESETSREDEYKQKYSRTYDETYQRYRPVSTSSSTTPSSSLSTMSSSLYASSQLNRPNSLVGITSAYSRGITKENEREGEKREEEKEGEDKSQPKSIRERRRPREKRRSTGVSFWTQDSDENEQEQQSDTEEGSNKKETQTDSISRYETSSTSAGDRYDSLLGRSGSYSYLEERKPYSSRLEKDDSTDFKKLYEQILAENEKLKAQLHDTNMELTDLKLQLEKATQRQERFADRSLLEMEKRERRALERRISEMEEELKMLPDLKADNQRLKDENGALIRVISKLSK

The values below come from IntAct's records for PubMed 15292222.

The variants in the experiment derive from B1. The conditions noted are these: with dapk3_human DAPK3, O43293.
dapk3_human DAPK3, O43293, sequence (O43293 whole entry, looked up): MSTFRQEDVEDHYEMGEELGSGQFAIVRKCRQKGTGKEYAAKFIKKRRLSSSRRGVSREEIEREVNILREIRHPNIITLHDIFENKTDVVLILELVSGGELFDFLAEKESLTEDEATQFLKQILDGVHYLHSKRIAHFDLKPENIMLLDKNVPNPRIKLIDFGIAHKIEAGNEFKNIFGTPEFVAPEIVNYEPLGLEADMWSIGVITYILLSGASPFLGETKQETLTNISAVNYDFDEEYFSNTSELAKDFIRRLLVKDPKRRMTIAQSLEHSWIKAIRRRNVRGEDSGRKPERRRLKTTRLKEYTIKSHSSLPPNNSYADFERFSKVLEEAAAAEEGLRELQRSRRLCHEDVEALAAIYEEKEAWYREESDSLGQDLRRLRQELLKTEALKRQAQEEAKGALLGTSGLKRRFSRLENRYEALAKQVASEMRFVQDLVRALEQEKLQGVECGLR
Consider L1007A;L1014A;L1021A;L1028A, for which the “effect of a mutation on the interaction” value is listed as “disrupting interaction”.
